The values below come from IntAct's records for PubMed 25678599.

First the molecules themselves.
B1: WW domain-containing oxidoreductase (Homo sapiens), Q9NZC7 (parent)
chain: MAALRYAGLDDTDSEDELPPGWEERTTKDGWVYYANHTEEKTQWEHPKTGKRKRVAGDLPYGWEQETDENGQVFFVDHINKRTTYLDPRLAFTVDDNPTKPTTRQRYDGSTTAMEILQGRDFTGKVVVVTGANSGIGFETAKSFALHGAHVILACRNMARASEAVSRILEEWHKAKVEAMTLDLALLRSVQHFAEAFKAKNVPLHVLVCNAATFALPWSLTKDGLETTFQVNHLGHFYLVQLLQDVLCRSAPARVIVVSSESHRFTDINDSLGKLDFSRLSPTKNDYWAMLAYNRSKLCNILFSNELHRRLSPRGVTSNAVHPGNMMYSNIHRSWWVYTLLFTLARPFTKSMQQGAATTVYCAAVPELEGLGGMYFNNCCRCMPSPEAQSEETARTLWALSERLIQERLGSQSG
partner: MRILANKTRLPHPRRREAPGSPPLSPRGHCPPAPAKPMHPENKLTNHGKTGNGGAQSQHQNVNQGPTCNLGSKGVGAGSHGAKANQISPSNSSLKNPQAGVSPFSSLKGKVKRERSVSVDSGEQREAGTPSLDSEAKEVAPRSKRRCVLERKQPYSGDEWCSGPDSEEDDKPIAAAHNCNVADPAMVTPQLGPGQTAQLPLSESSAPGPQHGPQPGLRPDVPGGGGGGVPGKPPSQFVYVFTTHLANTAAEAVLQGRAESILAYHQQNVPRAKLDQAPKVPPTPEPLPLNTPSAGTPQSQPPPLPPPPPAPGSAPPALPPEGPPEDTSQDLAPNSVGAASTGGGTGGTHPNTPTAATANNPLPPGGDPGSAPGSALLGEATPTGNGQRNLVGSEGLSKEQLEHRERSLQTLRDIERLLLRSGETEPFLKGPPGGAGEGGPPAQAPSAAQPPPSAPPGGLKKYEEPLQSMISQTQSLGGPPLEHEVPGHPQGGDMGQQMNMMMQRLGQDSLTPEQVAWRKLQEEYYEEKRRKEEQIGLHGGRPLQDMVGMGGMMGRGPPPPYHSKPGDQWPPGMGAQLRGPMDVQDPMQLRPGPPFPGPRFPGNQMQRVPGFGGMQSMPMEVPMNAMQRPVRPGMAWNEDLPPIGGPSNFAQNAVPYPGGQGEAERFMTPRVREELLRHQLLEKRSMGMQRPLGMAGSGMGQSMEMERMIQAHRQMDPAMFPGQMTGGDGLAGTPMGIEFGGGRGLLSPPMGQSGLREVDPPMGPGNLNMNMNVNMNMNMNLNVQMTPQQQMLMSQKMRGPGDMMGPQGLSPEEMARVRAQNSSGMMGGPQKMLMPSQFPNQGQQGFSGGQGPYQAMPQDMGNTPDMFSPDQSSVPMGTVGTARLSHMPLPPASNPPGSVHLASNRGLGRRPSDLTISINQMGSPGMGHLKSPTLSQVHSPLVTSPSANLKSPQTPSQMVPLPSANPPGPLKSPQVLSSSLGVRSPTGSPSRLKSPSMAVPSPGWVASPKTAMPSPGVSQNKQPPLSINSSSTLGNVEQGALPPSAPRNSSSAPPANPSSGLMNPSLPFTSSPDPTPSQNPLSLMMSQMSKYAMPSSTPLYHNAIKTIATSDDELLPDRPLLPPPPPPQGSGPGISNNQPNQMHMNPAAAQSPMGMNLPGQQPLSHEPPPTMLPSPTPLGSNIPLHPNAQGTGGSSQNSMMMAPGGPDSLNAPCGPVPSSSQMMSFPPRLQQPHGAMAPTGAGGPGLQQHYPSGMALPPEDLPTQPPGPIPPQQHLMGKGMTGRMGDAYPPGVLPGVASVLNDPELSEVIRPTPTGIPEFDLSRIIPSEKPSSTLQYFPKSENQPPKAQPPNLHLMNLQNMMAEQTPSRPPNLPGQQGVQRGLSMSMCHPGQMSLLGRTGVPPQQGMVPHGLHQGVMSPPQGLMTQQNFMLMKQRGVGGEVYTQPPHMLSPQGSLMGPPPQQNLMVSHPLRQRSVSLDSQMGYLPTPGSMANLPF
B2: WW domain-containing oxidoreductase (Homo sapiens), Q9NZC7 (parent)
chain: B1 chain
partner: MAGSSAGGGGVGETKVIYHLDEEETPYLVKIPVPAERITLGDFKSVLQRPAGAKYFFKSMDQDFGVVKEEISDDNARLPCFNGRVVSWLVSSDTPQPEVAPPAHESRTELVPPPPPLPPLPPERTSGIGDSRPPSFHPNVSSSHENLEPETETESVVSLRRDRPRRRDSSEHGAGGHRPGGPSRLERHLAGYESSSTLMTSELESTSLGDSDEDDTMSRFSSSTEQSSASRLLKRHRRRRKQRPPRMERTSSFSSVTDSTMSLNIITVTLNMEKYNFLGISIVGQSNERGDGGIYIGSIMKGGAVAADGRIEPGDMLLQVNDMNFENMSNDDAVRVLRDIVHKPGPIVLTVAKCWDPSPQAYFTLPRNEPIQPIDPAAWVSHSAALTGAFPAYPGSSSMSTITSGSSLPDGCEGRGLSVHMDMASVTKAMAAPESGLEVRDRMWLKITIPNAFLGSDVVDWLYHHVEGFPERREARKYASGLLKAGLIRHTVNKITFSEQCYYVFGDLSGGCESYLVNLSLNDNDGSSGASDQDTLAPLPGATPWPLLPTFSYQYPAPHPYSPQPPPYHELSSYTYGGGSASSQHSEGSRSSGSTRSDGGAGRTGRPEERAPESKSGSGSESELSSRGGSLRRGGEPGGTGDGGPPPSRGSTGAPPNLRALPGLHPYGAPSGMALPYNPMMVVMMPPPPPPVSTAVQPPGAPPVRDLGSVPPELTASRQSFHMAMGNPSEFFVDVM
B3: B-cell CLL/lymphoma 9-like protein (Mus musculus), Q67FY2 (parent)
chain: B1 partner
partner: B1 chain
B4: Segment polarity protein dishevelled homolog DVL-2 (Mus musculus), Q60838 (parent)
chain: B2 partner
partner: B1 chain

Variants of B1 are the subject of the first assay. The note with it: with bcl9l_mouse Bcl9l, Q67FY2.
MAALRYAGLDDTDSEDELPPGWEERTTKDGWVRYANHTEEKTQWEHPKTGKRKRVAGDLPYGWEQETDENGQVFFVDHINKRTTYLDPRLAFTVDDNPTKPTTRQRYDGSTTAMEILQGRDFTGKVVVVTGANSGIGFETAKSFALHGAHVILACRNMARASEAVSRILEEWHKAKVEAMTLDLALLRSVQHFAEAFKAKNVPLHVLVCNAATFALPWSLTKDGLETTFQVNHLGHFYLVQLLQDVLCRSAPARVIVVSSESHRFTDINDSLGKLDFSRLSPTKNDYWAMLAYNRSKLCNILFSNELHRRLSPRGVTSNAVHPGNMMYSNIHRSWWVYTLLFTLARPFTKSMQQGAATTVYCAAVPELEGLGGMYFNNCCRCMPSPEAQSEETARTLWALSERLIQERLGSQSG [Y33R]: the “effect of a mutation on the interaction” value was “decreasing interaction”.

In a further assay the parent is B2. Particulars: with dvl2_mouse Dvl2, Q60838.
As to MAALRYAGLDDTDSEDELPPGWEERTTKDGWVRYANHTEEKTQWEHPKTGKRKRVAGDLPYGWEQETDENGQVFFVDHINKRTTYLDPRLAFTVDDNPTKPTTRQRYDGSTTAMEILQGRDFTGKVVVVTGANSGIGFETAKSFALHGAHVILACRNMARASEAVSRILEEWHKAKVEAMTLDLALLRSVQHFAEAFKAKNVPLHVLVCNAATFALPWSLTKDGLETTFQVNHLGHFYLVQLLQDVLCRSAPARVIVVSSESHRFTDINDSLGKLDFSRLSPTKNDYWAMLAYNRSKLCNILFSNELHRRLSPRGVTSNAVHPGNMMYSNIHRSWWVYTLLFTLARPFTKSMQQGAATTVYCAAVPELEGLGGMYFNNCCRCMPSPEAQSEETARTLWALSERLIQERLGSQSG [Y33R], the “effect of a mutation on the interaction” value is reported as “decreasing interaction”.

Variants of B3 are the subject of a further assay. Particulars: with wwox_human WWOX, Q9NZC7.
With Y561A, the “effect of a mutation on the interaction” value was “disrupting interaction”.

Another assay covers variants of B4. The note with it: with wwox_human WWOX, Q9NZC7.
As to Y568A, the “effect of a mutation on the interaction” value is recorded as “decreasing interaction”.
